Values quoted from earlier work as cited in patent US20160258855A1, “Methods and Apparatus to Determine Diffusion Properties of Porous Structures for Drug Delivery” (ForSight Vision4, Inc., priority 2010, published 2016).
Where two headings read alike, the source gives them in different places.

Assays:
[1] = human eye, intravitreal, cited from earlier work
[2] = monkey eye, intravitreal, cited from earlier work
[3] = rabbit eye, intravitreal, cited from earlier work

Substance: ranibizumab [Lucentis]
- half-life in vitreous [1]: about nine
- half-life in vitreous ([1]; listed as ranibizumab): ~220 h
- half-life in vitreous [2]: two to four
- half-life in vitreous ([2]; listed as ranibizumab): approximately 3 days
- half-life in vitreous [3]: two to four
- half-life in vitreous ([3]; listed as ranibizumab): approximately 3 days
